Experimental data taken from the supplement of paper PMC11246515.
± gives the standard deviation of the averaged measurements.

Experiment: total protein half-life in vivo (active degradation + dilution); higher = more stable protein
[1] = E. coli NCM3722 delta-clpP delta-lon delta-hslV, growth: N-lim chemostat, doubling time 6 h
[2] = E. coli NCM3722 delta-clpP, growth: N-lim chemostat, doubling time 6 h
[3] = E. coli NCM3722 delta-hslV, growth: N-lim chemostat, doubling time 6 h
[4] = E. coli NCM3722 delta-lon, growth: N-lim chemostat, doubling time 6 h
[5] = E. coli NCM3722 delta-smpB, growth: N-lim chemostat, doubling time 6 h
[6] = wild type E. coli NCM3722, growth: C-lim chemostat, doubling time 3 h
[7] = wild type E. coli NCM3722, growth: C-lim chemostat, doubling time 6 h
[8] = wild type E. coli NCM3722, growth: C-lim chemostat, doubling time 12 h
[9] = wild type E. coli NCM3722, growth: N-lim chemostat, doubling time 6 h
[10] = wild type E. coli NCM3722, growth: N-lim chemostat, doubling time 12 h
[11] = wild type E. coli NCM3722, growth: P-lim chemostat, doubling time 6 h
[12] = wild type E. coli NCM3722, growth: P-lim chemostat, doubling time 12 h

| Sequence | total protein half-life in vivo [1] [h] | total protein half-life in vivo [2] [h] | total protein half-life in vivo [3] [h] | total protein half-life in vivo [4] [h] | total protein half-life in vivo [5] [h] | total protein half-life in vivo [6] [h] | total protein half-life in vivo [7] [h] | total protein half-life in vivo [8] [h] | total protein half-life in vivo [9] [h] | total protein half-life in vivo [10] [h] | total protein half-life in vivo [11] [h] | total protein half-life in vivo [12] [h] |
| --- | --- | --- | --- | --- | --- | --- | --- | --- | --- | --- | --- | --- |
| MKFFALFIYRPVATILLSVAITLCGILGFRMLPVAPLPQVDFPVIIVSASLPGASPETMASSVATPLERSLGRIAGVSEMTSSSSLGSTRIILQFDFDRDINGAARDVQAAINAAQSLLPSGMPSRPTYRKANPSDAPIMILTLTSDTYSQGELYDFASTQLAPTISQIDGVGDVDVGGSSLPAVRVGLNPQALFNQGVSLDDVRTAVSNANVRKPQGALEDGTHRWQIQTNDELKTAAEYQPLIIHYNNGGAVRLGDVATVTDSVQDVRNAGMTNAKPAILLMIRKLPEANIIQTVDSIRAKLPELQETIPAAIDLQIAQDRSPTIRASLEEVEQTLIISVALVILVVFLFLRSGRATIIPAVSVPVSLIGTFAAMYLCGFSLNNLSLMALTIATGFVVDDAIVVLENIARHLEAGMKPLQAALQGTREVGFTVLSMSLSLVAVFLPLLLMGGLPGRLLREFAVTLSVAIGISLLVSLTLTPMMCGWMLKASKPREQKRLRGFGRMLVALQQGYGKSLKWVLNHTRLVGVVLLGTIALNIWLYISIPKTFFPEQDTGVLMGGIQADQSISFQAMRGKLQDFMKIIRDDPAVDNVTGFTGGSRVNSGMMFITLKPRDERSETAQQIIDRLRVKLAKEPGANLFLMAVQDIRVGGRQSNASYQYTLLSDDLAALREWEPKIRKKLATLPELADVNSDQQDNGAEMNLVYDRDTMARLGIDVQAANSLLNNAFGQRQISTIYQPMNQYKVVMEVDPRYTQDISALEKMFVINNEGKAIPLSYFAKWQPANAPLSVNHQGLSAASTISFNLPTGKSLSDASAAIDRAMTQLGVPSTVRGSFAGTAQVFQETMNSQVILIIAAIATVYIVLGILYESYVHPLTILSTLPSAGVGALLALELFNAPFSLIALIGIMLLIGIVKKNAIMMVDFALEAQRHGNLTPQEAIFQACLLRFRPIMMTTLAALFGALPLVLSGGDGSELRQPLGITIVGGLVMSQLLTLYTTPVVYLFFDRLRLRFSRKPKQTVTE | 6.8 ± 0.5 | 6.49 ± 0.36 | 5.92 ± 0.38 | 7.42 ± 0.68 | 5.44 ± 0.14 | 3.64 ± 0.29 | 6.08 ± 1 | 14.4 ± 0.89 | 5.78 ± 0.89 | 13.8 ± 0.8 | 6.3 ± 0.2 | 12.2 ± 0.66 |
| MKFQAIVLASFLVMPYALADDQGGLKQDAAPPPPHAIEDGYRGTDDAKKMTVDFAKTMHDGASVSLRGNLISHKGEDRYVFRDKSGEINVVIPAAVFDGREVQPDQMINISGSLDKKSAPAVVRVTHLQK | 3.34 ± 0.2 | 3.77 ± 0.45 | 5.37 ± 0.2 | – | – | 3.02 ± 0.51 | 5.22 ± 0.22 | 6.52 ± 1.8 | 5.18 ± 0.37 | 8.94 ± 0.26 | 4.33 ± 0.9 | 7.82 ± 2.9 |
| MKFRLGGFEAIKSAYMAQVQYSMWVTRKDAWYFANYDPRMKREGLHYVVIERNEKYMASFDEMVPEFIEKMDEALAEIGFVFGEQWR | – | 2.75 | – | – | – | – | – | – | – | – | – | – |
| MKFSELWLREWVNPAIDSDALANQITMAGLEVDGVEPVAGSFHGVVVGEVVECAQHPNADKLRVTKVNVGGDRLLDIVCGAPNCRQGLRVAVATIGAVLPGDFKIKAAKLRGEPSEGMLCSFSELGISDDHSGIIELPADAPIGTDIREYLKLDDNTIEISVTPNRADCLGIIGVARDVAVLNQLPLVQPEIVPVGATIDDTLPITVEAPEACPRYLGRVVKGINVKAPTPLWMKEKLRRCGIRSIDAVVDVTNYVLLELGQPMHAFDKDRIEGGIVVRMAKEGETLVLLDGTEAKLNADTLVIADHNKALAMGGIFGGEHSGVNDETQNVLLECAFFSPLSITGRARRHGLHTDASHRYERGVDPALQHKAMERATRLLIDICGGEAGPVIDITNEATLPKRATITLRRSKLDRLIGHHIADEQVTDILRRLGCEVTEGKDEWQAVAPSWRFDMEIEEDLVEEVARVYGYNNIPDEPVQASLIMGTHREADLSLKRVKTLLNDKGYQEVITYSFVDPKVQQMIHPGVEALLLPSPISVEMSAMRLSLWTGLLATVVYNQNRQQNRVRIFESGLRFVPDTQAPLGIRQDLMLAGVICGNRYEEHWNLAKETVDFYDLKGDLESVLDLTGKLNEVEFRAEANPALHPGQSAAIYLKGERIGFVGVVHPELERKLDLNGRTLVFELEWNKLADRVVPQAREISRFPANRRDIAVVVAENVPAADILSECKKVGVNQVVGVNLFDVYRGKGVAEGYKSLAISLILQDTSRTLEEEEIAATVAKCVEALKERFQASLRD | 6.244 ± 0.025 | 5.88 ± 0.61 | 5.77 ± 0.16 | 5.98 ± 0.44 | 5.33 ± 0.063 | 3.37 ± 0.066 | 6.34 ± 0.37 | 12.5 ± 0.56 | 5.41 ± 0.088 | 10.4 ± 0.24 | 6.01 ± 0.4 | 12 ± 0.58 |
| MKFVDEASILVVAGDGGNGCVSFRREKYIPKGGPDGGDGGDGGDVWMEADENLNTLIDYRFEKSFRAERGQNGASRDCTGKRGKDVTIKVPVGTRVIDQGTGETMGDMTKHGQRLLVAKGGWHGLGNTRFKSSVNRTPRQKTNGTPGDKRELLLELMLLADVGMLGMPNAGKSTFIRAVSAAKPKVADYPFTTLVPSLGVVRMDNEKSFVVADIPGLIEGAAEGAGLGIRFLKHLERCRVLLHLIDIDPIDGTDPVENARIIISELEKYSQDLATKPRWLVFNKIDLLDKVEAEEKAKAIAEALGWEDKYYLISAASGLGVKDLCWDVMTFIIENPVVQAEEAKQPEKVEFMWDDYHRQQLEEIAEEDDEDWDDDWDEDDEEGVEFIYKR | 5.72 ± 1.1 | 4.17 ± 0.15 | 2.39 ± 0.18 | 2.44 ± 0.097 | 2.185 ± 0.021 | 2.27 ± 0.1 | 3.58 ± 0.14 | 5.35 ± 0.73 | 2.39 ± 0.11 | 2.82 ± 0.035 | 3.04 ± 0.22 | 5.89 ± 0.39 |
| MKGLNKITCCLLAALLMPCAGHAENEQYGANFNNADIRQFVEIVGQHLGKTILIDPSVQGTISVRSNDTFSQQEYYQFFLSILDLYGYSVITLDNGFLKVVRSANVKTSPGMIADSSRPGVGDELVTRIVPLENVPARDLAPLLRQMMDAGSVGNVVHYEPSNVLILTGRASTINKLIEVIKRVDVIGTEKQQIIHLEYASAEDLAEILNQLISESHGKSQMPALLSAKIVADKRTNSLIISGPEKARQRITSLLKSLDVEESEEGNTRVYYLKYAKATNLVEVLTGVSEKLKDEKGNARKPSSSGAMDNVAITADEQTNSLVITADQSVQEKLATVIARLDIRRAQVLVEAIIVEVQDGNGLNLGVQWANKNVGAQQFTNTGLPIFNAAQGVADYKKNGGITSANPAWDMFSAYNGMAAGFFNGDWGVLLTALASNNKNDILATPSIVTLDNKLASFNVGQDVPVLSGSQTTSGDNVFNTVERKTVGTKLKVTPQVNEGDAVLLEIEQEVSSVDSSSNSTLGPTFNTRTIQNAVLVKTGETVVLGGLLDDFSKEQVSKVPLLGDIPLVGQLFRYTSTERAKRNLMVFIRPTIIRDDDVYRSLSKEKYTRYRQEQQQRIDGKSKALVGSEDLPVLDENTFNSHAPAPSSR | 2.53 | – | – | – | 1.92 ± 0.044 | 2.2 | – | – | – | – | – | – |
| MKHELSSMKAFVILAESSSFNNAAKLLNITQPALTRRIKKMEEDLHVQLFERTTRKVTLTKAGKRLLPEARELIKKFDETLFNIRDMNAYHRGMVTLACIPTAVFYFLPLAIGKFNELYPNIKVRILEQGTNNCMESVLCNESDFGINMNNVTNSSIDFTPLVNEPFVLACRRDHPLAKKQLVEWQELVGYKMIGVRSSSGNRLLIEQQLADKPWKLDWFYEVRHLSTSLGLVEAGLGISALPGLAMPHAPYSSIIGIPLVEPVIRRTLGIIRRKDAVLSPAAERFFALLINLWTDDKDNLWTNIVERQRHALQEIG | 3.61 | – | – | – | – | – | – | – | – | – | – | – |
| MKHLHRFFSSDASGGIILIIAAILAMIMANSGATSGWYHDFLETPVQLRVGSLEINKNMLLWINDALMAVFFLLVGLEVKRELMQGSLASLRQAAFPVIAAIGGMIVPALLYLAFNYADPITREGWAIPAATDIAFALGVLALLGSRVPLALKIFLMALAIIDDLGAIIIIALFYTNDLSMASLGVAAVAIAVLAVLNLCGARRTGVYILVGVVLWTAVLKSGVHATLAGVIVGFFIPLKEKHGRSPAKRLEHVLHPWVAYLILPLFAFANAGVSLQGVTLDGLTSILPLGIIAGLLIGKPLGISLFCWLALRLKLAHLPEGTTYQQIMVVGILCGIGFTMSIFIASLAFGSVDPELINWAKLGILVGSISSAVIGYSWLRVRLRPSV | 6.65 | 6.24 ± 0.42 | 5.55 ± 0.066 | 5.75 ± 0.5 | 6.42 ± 0.43 | 3.69 | 5.22 ± 1.9 | 12 | 5.7 ± 0.59 | 11.7 ± 0.19 | 5.867 ± 0.035 | 10.6 ± 2 |
| MKHLTEMVRQHKAGKTNGIYAVCSAHPLVLEAAIRYASANQTPLLIEATSNQVDQFGGYTGMTPADFRGFVCQLADSLNFPQDALILGGDHLGPNRWQNLPAAQAMANADDLIKSYVAAGFKKIHLDCSMSCQDDPIPLTDDIVAERAARLAKVAEETCLEHFGEADLEYVIGTEVPVPGGAHETLSELAVTTPDAARATLEAHRHAFEKQGLNAIWPRIIALVVQPGVEFDHTNVIDYQPAKASALSQMVENYETLIFEAHSTDYQTPQSLRQLVIDHFAILKVGPALTFALREALFSLAAIEEELVPAKACSGLRQVLEDVMLDRPEYWQSHYHGDGNARRLARGYSYSDRVRYYWPDSQIDDAFAHLVRNLADSPIPLPLISQYLPLQYVKVRSGELQPTPRELIINHIQDILAQYHTACEGQ [P0C8K0] | – | – | – | – | – | 2.63 ± 0.042 | 3.29 | 5 ± 1.3 | – | – | – | – |
